The values that follow come from patent US20140206609A1 (Sanofi, published 2014).

What all share (test): cell-based or functional assay
One assay deals with human GLP-1 receptor (human, UniProt P43220 24-463).
A further assay concerns the target T1, human GIP receptor (human, UniProt P48546 22-466).
T1 sequence (looked up): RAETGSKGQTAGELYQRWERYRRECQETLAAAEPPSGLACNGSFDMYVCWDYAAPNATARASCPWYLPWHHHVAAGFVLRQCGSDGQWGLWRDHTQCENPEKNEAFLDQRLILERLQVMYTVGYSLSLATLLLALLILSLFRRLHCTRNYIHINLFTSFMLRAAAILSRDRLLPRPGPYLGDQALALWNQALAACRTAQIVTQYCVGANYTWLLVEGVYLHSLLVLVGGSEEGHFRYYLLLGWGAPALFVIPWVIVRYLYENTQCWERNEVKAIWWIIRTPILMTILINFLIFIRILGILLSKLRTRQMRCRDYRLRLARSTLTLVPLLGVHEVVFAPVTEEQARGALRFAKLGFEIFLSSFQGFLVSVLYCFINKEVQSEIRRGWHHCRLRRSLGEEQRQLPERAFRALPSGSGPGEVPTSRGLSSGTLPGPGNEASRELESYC

A further assay addresses human glucagon receptor (human, UniProt P47871 26-477).

*1 amine or outer side, *2 acyl side, *3 side chain or, on linkers, in order; H or OH if unused. Where no end group is shown, it is not given here. Side-chain parts run from the residue outwards. [ ]: non-standard residue; d: D form. The star is where a group is joined. γGlu = O=C(O)[C@H](CCC(=O)[*:2])N[*:1]; Palmitoyl = CCCCCCCCCCCCCCCC(=O)*; Aib = CC(C)(N)C(=O)O

human glucagon receptor, sequence (P47871 26-477): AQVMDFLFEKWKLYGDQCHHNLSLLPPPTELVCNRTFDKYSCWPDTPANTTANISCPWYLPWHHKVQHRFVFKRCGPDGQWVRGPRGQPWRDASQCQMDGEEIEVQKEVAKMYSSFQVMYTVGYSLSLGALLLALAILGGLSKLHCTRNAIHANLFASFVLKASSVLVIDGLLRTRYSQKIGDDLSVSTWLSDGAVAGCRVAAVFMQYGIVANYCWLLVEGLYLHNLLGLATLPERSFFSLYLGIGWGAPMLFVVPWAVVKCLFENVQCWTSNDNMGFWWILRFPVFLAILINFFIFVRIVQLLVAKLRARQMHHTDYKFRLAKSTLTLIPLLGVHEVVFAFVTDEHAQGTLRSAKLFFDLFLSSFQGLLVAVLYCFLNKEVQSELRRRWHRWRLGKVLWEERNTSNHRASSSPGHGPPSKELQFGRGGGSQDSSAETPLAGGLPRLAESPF

B1: SEQ ID NO: 35 (peptide)
peptide: Y[Aib]EGTFTSDLSIQK([γGlu-Palmitoyl])ESRAA[Aib]EFIEWLKAGGPSSGAPPPS-NH2
modifications: N-terminus assumed
SMILES: CCCCCCCCCCCCCCCC(=O)N[C@@H](CCC(=O)NCCCC[C@H](NC(=O)[C@H](CCC(N)=O)NC(=O)[C@@H](NC(=O)[C@H](CO)NC(=O)[C@H](CC(C)C)NC(=O)[C@H](CC(=O)O)NC(=O)[C@H](CO)NC(=O)[C@@H](NC(=O)[C@H](Cc1ccccc1)NC(=O)[C@@H](NC(=O)CNC(=O)[C@H](CCC(=O)O)NC(=O)C(C)(C)NC(=O)[C@@H](N)Cc1ccc(O)cc1)[C@@H](C)O)[C@@H](C)O)[C@@H](C)CC)C(=O)N[C@@H](CCC(=O)O)C(=O)N[C@@H](CO)C(=O)N[C@@H](CCCNC(=N)N)C(=O)N[C@@H](C)C(=O)N[C@@H](C)C(=O)NC(C)(C)C(=O)N[C@@H](CCC(=O)O)C(=O)N[C@@H](Cc1ccccc1)C(=O)N[C@H](C(=O)N[C@@H](CCC(=O)O)C(=O)N[C@@H](Cc1c[nH]c2ccccc12)C(=O)N[C@@H](CC(C)C)C(=O)N[C@@H](CCCCN)C(=O)N[C@@H](C)C(=O)NCC(=O)NCC(=O)N1CCC[C@H]1C(=O)N[C@@H](CO)C(=O)N[C@@H](CO)C(=O)NCC(=O)N[C@@H](C)C(=O)N1CCC[C@H]1C(=O)N1CCC[C@H]1C(=O)N1CCC[C@H]1C(=O)N[C@@H](CO)C(N)=O)[C@@H](C)CC)C(=O)O
Consider B1, for which the “EC50 hGLP-1 R [pM]” value with human GLP-1 receptor stood at 6.9 pM. The “EC50 hGIP R [pM]” value with human GIP receptor stood at 7.3 pM. Besides, the “EC50 hGLUC R [pM]” value with human glucagon receptor stood at 39100 pM.

B2: SEQ ID NO: 36 (peptide)
peptide: Y[Aib]EGTFTSDLSIQK([γGlu-Palmitoyl])EKRAA[Aib]EFIEWLKAGGPSSGAPPPS-NH2
modifications: N-terminus assumed
SMILES: CCCCCCCCCCCCCCCC(=O)N[C@@H](CCC(=O)NCCCC[C@H](NC(=O)[C@H](CCC(N)=O)NC(=O)[C@@H](NC(=O)[C@H](CO)NC(=O)[C@H](CC(C)C)NC(=O)[C@H](CC(=O)O)NC(=O)[C@H](CO)NC(=O)[C@@H](NC(=O)[C@H](Cc1ccccc1)NC(=O)[C@@H](NC(=O)CNC(=O)[C@H](CCC(=O)O)NC(=O)C(C)(C)NC(=O)[C@@H](N)Cc1ccc(O)cc1)[C@@H](C)O)[C@@H](C)O)[C@@H](C)CC)C(=O)N[C@@H](CCC(=O)O)C(=O)N[C@@H](CCCCN)C(=O)N[C@@H](CCCNC(=N)N)C(=O)N[C@@H](C)C(=O)N[C@@H](C)C(=O)NC(C)(C)C(=O)N[C@@H](CCC(=O)O)C(=O)N[C@@H](Cc1ccccc1)C(=O)N[C@H](C(=O)N[C@@H](CCC(=O)O)C(=O)N[C@@H](Cc1c[nH]c2ccccc12)C(=O)N[C@@H](CC(C)C)C(=O)N[C@@H](CCCCN)C(=O)N[C@@H](C)C(=O)NCC(=O)NCC(=O)N1CCC[C@H]1C(=O)N[C@@H](CO)C(=O)N[C@@H](CO)C(=O)NCC(=O)N[C@@H](C)C(=O)N1CCC[C@H]1C(=O)N1CCC[C@H]1C(=O)N1CCC[C@H]1C(=O)N[C@@H](CO)C(N)=O)[C@@H](C)CC)C(=O)O
For B2, in the assay with human GLP-1 receptor, the “EC50 hGLP-1 R [pM]” value stood at 3.4 pM. For the same molecule, in the assay with human GIP receptor, the “EC50 hGIP R [pM]” value came to 6.4 pM. Besides, the “EC50 hGLUC R [pM]” value with human glucagon receptor turned out to be 5780 pM.

B3: SEQ ID NO: 34 (peptide)
peptide: Y[Aib]EGTFTSDLSIQK([γGlu-Palmitoyl])EKRAAQEFIEWLKAGGPSSGAPPPS-NH2
modifications: N-terminus assumed
SMILES: CCCCCCCCCCCCCCCC(=O)N[C@@H](CCC(=O)NCCCC[C@H](NC(=O)[C@H](CCC(N)=O)NC(=O)[C@@H](NC(=O)[C@H](CO)NC(=O)[C@H](CC(C)C)NC(=O)[C@H](CC(=O)O)NC(=O)[C@H](CO)NC(=O)[C@@H](NC(=O)[C@H](Cc1ccccc1)NC(=O)[C@@H](NC(=O)CNC(=O)[C@H](CCC(=O)O)NC(=O)C(C)(C)NC(=O)[C@@H](N)Cc1ccc(O)cc1)[C@@H](C)O)[C@@H](C)O)[C@@H](C)CC)C(=O)N[C@@H](CCC(=O)O)C(=O)N[C@@H](CCCCN)C(=O)N[C@@H](CCCNC(=N)N)C(=O)N[C@@H](C)C(=O)N[C@@H](C)C(=O)N[C@@H](CCC(N)=O)C(=O)N[C@@H](CCC(=O)O)C(=O)N[C@@H](Cc1ccccc1)C(=O)N[C@H](C(=O)N[C@@H](CCC(=O)O)C(=O)N[C@@H](Cc1c[nH]c2ccccc12)C(=O)N[C@@H](CC(C)C)C(=O)N[C@@H](CCCCN)C(=O)N[C@@H](C)C(=O)NCC(=O)NCC(=O)N1CCC[C@H]1C(=O)N[C@@H](CO)C(=O)N[C@@H](CO)C(=O)NCC(=O)N[C@@H](C)C(=O)N1CCC[C@H]1C(=O)N1CCC[C@H]1C(=O)N1CCC[C@H]1C(=O)N[C@@H](CO)C(N)=O)[C@@H](C)CC)C(=O)O
B3: the “EC50 hGLP-1 R [pM]” value in the assay with human GLP-1 receptor came out at 4.6 pM. Besides, the “EC50 hGIP R [pM]” value with human GIP receptor is 22.2 pM. For the same molecule, the “EC50 hGLUC R [pM]” value with human glucagon receptor came to 11600 pM.

B4: SEQ ID NO: 31 (peptide)
peptide: Y[Aib]EGTFTSDLSIQK([γGlu-Palmitoyl])DKRAAQDFIEWLKAGGPSSGAPPPS-NH2
modifications: N-terminus assumed
SMILES: CCCCCCCCCCCCCCCC(=O)N[C@@H](CCC(=O)NCCCC[C@H](NC(=O)[C@H](CCC(N)=O)NC(=O)[C@@H](NC(=O)[C@H](CO)NC(=O)[C@H](CC(C)C)NC(=O)[C@H](CC(=O)O)NC(=O)[C@H](CO)NC(=O)[C@@H](NC(=O)[C@H](Cc1ccccc1)NC(=O)[C@@H](NC(=O)CNC(=O)[C@H](CCC(=O)O)NC(=O)C(C)(C)NC(=O)[C@@H](N)Cc1ccc(O)cc1)[C@@H](C)O)[C@@H](C)O)[C@@H](C)CC)C(=O)N[C@@H](CC(=O)O)C(=O)N[C@@H](CCCCN)C(=O)N[C@@H](CCCNC(=N)N)C(=O)N[C@@H](C)C(=O)N[C@@H](C)C(=O)N[C@@H](CCC(N)=O)C(=O)N[C@@H](CC(=O)O)C(=O)N[C@@H](Cc1ccccc1)C(=O)N[C@H](C(=O)N[C@@H](CCC(=O)O)C(=O)N[C@@H](Cc1c[nH]c2ccccc12)C(=O)N[C@@H](CC(C)C)C(=O)N[C@@H](CCCCN)C(=O)N[C@@H](C)C(=O)NCC(=O)NCC(=O)N1CCC[C@H]1C(=O)N[C@@H](CO)C(=O)N[C@@H](CO)C(=O)NCC(=O)N[C@@H](C)C(=O)N1CCC[C@H]1C(=O)N1CCC[C@H]1C(=O)N1CCC[C@H]1C(=O)N[C@@H](CO)C(N)=O)[C@@H](C)CC)C(=O)O
B4: in the assay with human GLP-1 receptor, the “EC50 hGLP-1 R [pM]” value was 6 pM. Besides, the “EC50 hGIP R [pM]” value with human GIP receptor is 6.5 pM. Moreover, the “EC50 hGLUC R [pM]” value with human glucagon receptor turned out to be 3080 pM.

B5: SEQ ID NO: 33 (peptide)
peptide: Y[Aib]EGTFTSDLSIQK([γGlu-Palmitoyl])EKRAAQDFIEWLKAGGPSSGAPPPS-NH2
modifications: N-terminus assumed
SMILES: CCCCCCCCCCCCCCCC(=O)N[C@@H](CCC(=O)NCCCC[C@H](NC(=O)[C@H](CCC(N)=O)NC(=O)[C@@H](NC(=O)[C@H](CO)NC(=O)[C@H](CC(C)C)NC(=O)[C@H](CC(=O)O)NC(=O)[C@H](CO)NC(=O)[C@@H](NC(=O)[C@H](Cc1ccccc1)NC(=O)[C@@H](NC(=O)CNC(=O)[C@H](CCC(=O)O)NC(=O)C(C)(C)NC(=O)[C@@H](N)Cc1ccc(O)cc1)[C@@H](C)O)[C@@H](C)O)[C@@H](C)CC)C(=O)N[C@@H](CCC(=O)O)C(=O)N[C@@H](CCCCN)C(=O)N[C@@H](CCCNC(=N)N)C(=O)N[C@@H](C)C(=O)N[C@@H](C)C(=O)N[C@@H](CCC(N)=O)C(=O)N[C@@H](CC(=O)O)C(=O)N[C@@H](Cc1ccccc1)C(=O)N[C@H](C(=O)N[C@@H](CCC(=O)O)C(=O)N[C@@H](Cc1c[nH]c2ccccc12)C(=O)N[C@@H](CC(C)C)C(=O)N[C@@H](CCCCN)C(=O)N[C@@H](C)C(=O)NCC(=O)NCC(=O)N1CCC[C@H]1C(=O)N[C@@H](CO)C(=O)N[C@@H](CO)C(=O)NCC(=O)N[C@@H](C)C(=O)N1CCC[C@H]1C(=O)N1CCC[C@H]1C(=O)N1CCC[C@H]1C(=O)N[C@@H](CO)C(N)=O)[C@@H](C)CC)C(=O)O
For B5, the “EC50 hGLP-1 R [pM]” value in the assay with human GLP-1 receptor was determined as 6.4 pM. The “EC50 hGIP R [pM]” value in the assay with human GIP receptor stood at 9.1 pM. Also, in the assay with human glucagon receptor, the “EC50 hGLUC R [pM]” value stood at 12900 pM.
